Measured values published in the supplement of paper PMC9112550, “Optimization of the antimicrobial peptide Bac7 by deep mutational scanning” (BMC Biology, 2022).

The sequences below were run on Escherichia coli TOP10 (assay: shrunken log2 fold change of peptide-encoding DNA abundance (4.5 h post-induction vs induction); higher = less antimicrobial activity (less host growth inhibition)). Settings: time post-induction: 4.5 h; library: site-saturation at positions 5, 18, 19, 20.
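Also: peptides expressed intracellularly from a pBAD plasmid library in pooled LB shake-flask culture, induced with 0.3% L-arabinose, DNA abundance read by NGS, three biological replicates, DESeq2 with apeglm shrinkage.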

Row | Sequence | shrunken log2 fold change
1 | RRIRVRPPRLPRPRPRPMELPRP | -0.135
2 | RRIRFRPPRLPRPRPRPANTPRP | -0.209
3 | RRIRIRPPRLPRPRPRPMMEPRP | -0.599
4 | RRIRTRPPRLPRPRPRPHHTPRP | -0.474
5 | RRIRTRPPRLPRPRPRPHWGPRP | 0.229
6 | RRIRSRPPRLPRPRPRPSRSPRP | 0.179
7 | RRIRNRPPRLPRPRPRPNCWPRP | 0.241
8 | RRIRSRPPRLPRPRPRPNATPRP | 0.551
9 | RRIRWRPPRLPRPRPRPDPNPRP | 0.196
10 | RRIRIRPPRLPRPRPRPSLPPRP | -0.491
11 | RRIRRRPPRLPRPRPRPMPSPRP | 0.136
12 | RRIRTRPPRLPRPRPRPPMHPRP | 0.141
13 | RRIRMRPPRLPRPRPRPSFPPRP | -0.222
14 | RRIRKRPPRLPRPRPRPLHIPRP | -0.172
15 | RRIRLRPPRLPRPRPRPEHHPRP | -0.156
16 | RRIRRRPPRLPRPRPRPWQPPRP | -0.108
17 | RRIRPRPPRLPRPRPRPTCPPRP | 0.0562
18 | RRIRQRPPRLPRPRPRPAEEPRP | 0.0112
19 | RRIRMRPPRLPRPRPRPGLPPRP | 0.955
20 | RRIRKRPPRLPRPRPRPIRFPRP | -0.186
21 | RRIRIRPPRLPRPRPRPINEPRP | -0.516
22 | RRIRARPPRLPRPRPRPEWTPRP | 0.591
23 | RRIRERPPRLPRPRPRPCPPPRP | -0.0496
24 | RRIRHRPPRLPRPRPRPWDLPRP | -0.245
25 | RRIRQRPPRLPRPRPRPYKPPRP | 0.0291

Row | Sequence | shrunken log2 fold change
26 | RRIRDRPPRLPRPRPRPHCDPRP | -0.0666
27 | RRIRSRPPRLPRPRPRPHIRPRP | -0.632
28 | RRIRERPPRLPRPRPRPDMWPRP | -0.0874
29 | RRIRPRPPRLPRPRPRPEPAPRP | 0.572
30 | RRIRYRPPRLPRPRPRPKSVPRP | -0.187
31 | RRIRTRPPRLPRPRPRPWCVPRP | -0.212
32 | RRIRRRPPRLPRPRPRPRYDPRP | 0.0442
33 | RRIRFRPPRLPRPRPRPHSMPRP | -0.328
34 | RRIRGRPPRLPRPRPRPFEIPRP | -0.017
35 | RRIRTRPPRLPRPRPRPLLSPRP | 0.0198
36 | RRIRGRPPRLPRPRPRPFMTPRP | 0.837
37 | RRIRRRPPRLPRPRPRPFIAPRP | -0.253
38 | RRIRGRPPRLPRPRPRPIMWPRP | 0.39
39 | RRIRTRPPRLPRPRPRPKQQPRP | -0.0149
40 | RRIRCRPPRLPRPRPRPNCTPRP | -0.322
41 | RRIRGRPPRLPRPRPRPEAHPRP | 0.079
42 | RRIRQRPPRLPRPRPRPCYQPRP | -0.0254
43 | RRIRIRPPRLPRPRPRPWVFPRP | -0.397
44 | RRIRMRPPRLPRPRPRPQSPPRP | 0.213
45 | RRIRARPPRLPRPRPRPRMWPRP | 0.164
46 | RRIRVRPPRLPRPRPRPFFCPRP | -0.00678
47 | RRIRTRPPRLPRPRPRPGNEPRP | -0.000989
48 | RRIRHRPPRLPRPRPRPPLRPRP | 0.287
49 | RRIRWRPPRLPRPRPRPWDCPRP | -0.0326
50 | RRIRVRPPRLPRPRPRPADLPRP | 0.0387

Row | Sequence | shrunken log2 fold change
51 | RRIRPRPPRLPRPRPRPAAHPRP | 0.0385
52 | RRIRWRPPRLPRPRPRPSHHPRP | -0.3
53 | RRIRIRPPRLPRPRPRPKPIPRP | -0.0437
54 | RRIRNRPPRLPRPRPRPHNSPRP | -0.767
55 | RRIRIRPPRLPRPRPRPNYLPRP | -0.171
56 | RRIRMRPPRLPRPRPRPYLTPRP | -0.268
57 | RRIRDRPPRLPRPRPRPQCFPRP | 0.0363
58 | RRIRNRPPRLPRPRPRPNERPRP | 0.0308
59 | RRIRMRPPRLPRPRPRPFMFPRP | 0.0892
60 | RRIRDRPPRLPRPRPRPVCWPRP | 0.747
61 | RRIRYRPPRLPRPRPRPHAFPRP | 0.0566
62 | RRIRIRPPRLPRPRPRPIKKPRP | -0.0505
63 | RRIRERPPRLPRPRPRPKIIPRP | 0.357
64 | RRIRMRPPRLPRPRPRPVSIPRP | 0.0541
65 | RRIRPRPPRLPRPRPRPPKWPRP | 0.469
66 | RRIRWRPPRLPRPRPRPVASPRP | 0.27
67 | RRIRRRPPRLPRPRPRPFMNPRP | 0.0829
68 | RRIRKRPPRLPRPRPRPYQLPRP | -0.0193
69 | RRIRERPPRLPRPRPRPAQKPRP | 0.192
70 | RRIRPRPPRLPRPRPRPVIDPRP | -0.0426
71 | RRIRQRPPRLPRPRPRPQPQPRP | 0.0436
72 | RRIRHRPPRLPRPRPRPRFQPRP | 0.00482
73 | RRIRDRPPRLPRPRPRPMNMPRP | -0.308
74 | RRIRSRPPRLPRPRPRPNDHPRP | -0.322
75 | RRIRDRPPRLPRPRPRPWILPRP | -0.201

Row | Sequence | shrunken log2 fold change
76 | RRIRQRPPRLPRPRPRPQTQPRP | 0.025
77 | RRIRKRPPRLPRPRPRPIEWPRP | 0.404
78 | RRIRFRPPRLPRPRPRPRSYPRP | -0.268
79 | RRIRGRPPRLPRPRPRPWKRPRP | -0.0496
80 | RRIRPRPPRLPRPRPRPCWSPRP | 0.0606
81 | RRIRARPPRLPRPRPRPYPNPRP | -0.257
82 | RRIRHRPPRLPRPRPRPKIAPRP | 0.00548
83 | RRIRDRPPRLPRPRPRPADAPRP | 0.196
84 | RRIRGRPPRLPRPRPRPWFKPRP | -0.824
85 | RRIRWRPPRLPRPRPRPIHQPRP | 0.0226
86 | RRIRNRPPRLPRPRPRPTMKPRP | -0.368
87 | RRIRGRPPRLPRPRPRPRATPRP | 1.72
88 | RRIRTRPPRLPRPRPRPQVEPRP | -0.00619
89 | RRIRARPPRLPRPRPRPKGHPRP | 0.359
90 | RRIRRRPPRLPRPRPRPYRQPRP | -0.13
91 | RRIRARPPRLPRPRPRPWNLPRP | -0.0204
92 | RRIRKRPPRLPRPRPRPKLLPRP | -0.158
93 | RRIRDRPPRLPRPRPRPHYNPRP | -0.635
94 | RRIRCRPPRLPRPRPRPSSKPRP | -0.48
95 | RRIRRRPPRLPRPRPRPLSSPRP | 0.234
96 | RRIRIRPPRLPRPRPRPGSGPRP | 0.166
97 | RRIRIRPPRLPRPRPRPNGHPRP | -0.469
98 | RRIRGRPPRLPRPRPRPQRAPRP | 0.466
99 | RRIRRRPPRLPRPRPRPGCTPRP | 0.183
100 | RRIRDRPPRLPRPRPRPDRAPRP | 0.281

Row | Sequence | shrunken log2 fold change
101 | RRIRLRPPRLPRPRPRPQTPPRP | 0.358
102 | RRIRPRPPRLPRPRPRPFWDPRP | -0.465
103 | RRIRTRPPRLPRPRPRPLELPRP | -0.176
104 | RRIRCRPPRLPRPRPRPPNEPRP | 0.309
105 | RRIRNRPPRLPRPRPRPYMLPRP | -0.14
106 | RRIRARPPRLPRPRPRPPIHPRP | -0.11
107 | RRIRKRPPRLPRPRPRPYEAPRP | -0.325
108 | RRIRDRPPRLPRPRPRPICHPRP | 0.139
109 | RRIRMRPPRLPRPRPRPLADPRP | 3.11
110 | RRIRKRPPRLPRPRPRPHPFPRP | 0.188
111 | RRIRDRPPRLPRPRPRPNISPRP | -0.266
112 | RRIRFRPPRLPRPRPRPSCMPRP | -0.831
113 | RRIRVRPPRLPRPRPRPRNHPRP | 0.0133
114 | RRIRMRPPRLPRPRPRPRQRPRP | 1.79
115 | RRIRPRPPRLPRPRPRPIGRPRP | -0.0114
116 | RRIRWRPPRLPRPRPRPRWLPRP | 0.224
117 | RRIRPRPPRLPRPRPRPNTCPRP | -0.00653
118 | RRIRTRPPRLPRPRPRPLNKPRP | -0.225
119 | RRIRKRPPRLPRPRPRPPARPRP | 1.16
120 | RRIRTRPPRLPRPRPRPPCCPRP | 0.00432
121 | RRIRLRPPRLPRPRPRPAEGPRP | 0.242
122 | RRIRFRPPRLPRPRPRPEHPPRP | -0.0569
123 | RRIRLRPPRLPRPRPRPPVEPRP | 0.638
124 | RRIRMRPPRLPRPRPRPDYIPRP | -0.354
125 | RRIRCRPPRLPRPRPRPQGIPRP | 0.158

Row | Sequence | shrunken log2 fold change
126 | RRIRIRPPRLPRPRPRPGFKPRP | -0.219
127 | RRIRFRPPRLPRPRPRPMPKPRP | 0.856
128 | RRIRQRPPRLPRPRPRPIQYPRP | -0.151
129 | RRIRKRPPRLPRPRPRPIADPRP | -0.125
130 | RRIRVRPPRLPRPRPRPDEEPRP | 0.393
131 | RRIRDRPPRLPRPRPRPHQCPRP | -0.0903
132 | RRIRPRPPRLPRPRPRPWADPRP | 0.0868
133 | RRIRWRPPRLPRPRPRPVRIPRP | -0.0854
134 | RRIRLRPPRLPRPRPRPFPAPRP | -0.094
135 | RRIRTRPPRLPRPRPRPNREPRP | 0.115
136 | RRIRWRPPRLPRPRPRPVRTPRP | 0.955
137 | RRIRPRPPRLPRPRPRPCYDPRP | -0.165
138 | RRIRNRPPRLPRPRPRPANVPRP | 0.0585
139 | RRIRIRPPRLPRPRPRPTVSPRP | -0.0336
140 | RRIRDRPPRLPRPRPRPDRMPRP | -0.00945
141 | RRIRGRPPRLPRPRPRPNYWPRP | -0.115
142 | RRIRIRPPRLPRPRPRPVCDPRP | -0.372
143 | RRIRYRPPRLPRPRPRPATGPRP | 0.337
144 | RRIRQRPPRLPRPRPRPLEWPRP | 0.0921
145 | RRIRRRPPRLPRPRPRPDLYPRP | 0.0296
146 | RRIRNRPPRLPRPRPRPYWCPRP | -0.00264
147 | RRIRNRPPRLPRPRPRPHEKPRP | -0.0437
148 | RRIRCRPPRLPRPRPRPCLNPRP | -0.589
149 | RRIRCRPPRLPRPRPRPSYAPRP | -0.544
150 | RRIRDRPPRLPRPRPRPPHGPRP | 0.294
